Source: US20210071137A1, “PRODUCTION METHOD FOR CELL MASS INCLUDING NEURAL CELLS/TISSUE AND NON-NEURAL EPITHELIAL TISSUE, AND CELL MASS FROM SAME” (SUMITOMO CHEMICAL COMPANY, LIMITED, priority 2017, published 2021)
Counter-ions that a name gives are not always drawn.

What was measured:
Assay type in all cases: cell-based
[1] = test system: cell mass containing neural tissue and nonneural epithelial tissue prepared from human ES cell line KhES-1; test: Compound stimulability test by fluorescein staining and extraction (Example 11); conditions: test compound 2.5% in PBS, 24 hr, 37° C.; 0.02% fluorescein 30 sec; extraction 10 min; excitation 485 nm, emission 535 nm; Category 1 compound versus Category 2 compound
Description: Cell masses were prepared by the method described in Example 3 from human ES cell line KhES-1. Cell masses were collected using micropipette on day 28 from the start of suspension culturing, placed in a dish for suspension culture (manufactured by SUMITOMO BAKELITE CO., LTD.), and further cultured in suspension under the conditions of 37° C., 5% CO2 for 9 days. As the serum-free medium (gfCDM+KSR) therefor, a serum-free medium which is a 1:1 mixture of F-12+Glutamax medium (manufactured by Thermo Fisher Scientific) and […] medium (manufactured by Thermo Fisher Scientific) supplemented with 10% Knockout Serum Replacement (manufactured by Thermo Fisher Scientific), 450 μM 1-mono thioglycerol (manufactured by Wako Pure Chemical Industries, Ltd.), 1×Chemically defined lipid concentrate (manufactured by Thermo Fisher Scientific), 50 unit/ml penicillin-50 μg/ml streptomycin (manufactured by Nacalai Tesque) was used.
The cell masses on day 37 of suspension culturing and prepared by the above-mentioned method were added to 1.5 ml microtubes at 3 masses per tube, and washed twice with PBS. […] The concentration of fluorescein in the extract prepared by the above-mentioned method was measured using a fluorescent plate reader (2104 EnVision multilabel counter, manufactured by Perkin Elmer) under the conditions of excitation 485 nm and emission 535 nm.

[2] = test system: Human ES cells (KhES-1 strain); test: Consideration of timing of addition of BMP4 in production of cell mass (Example 4)
Description: Human ES cells (KhES-1 strain, obtained from Kyoto University) were cultured under feeder-free conditions according to the method described in Scientific Reports, 4, 3594 (2014). As the feeder-free medium, StemFit medium was used and, as the feeder-free scaffold, […] was used.
Specific maintenance culturing operation was performed in the same manner as in Comparative Example 1. Thereafter, suspension culturing in a 96-well plate under conditions similar to those in Comparative Example 1 was started. The condition without addition of a BMP signal transduction pathway activating substance during the suspension culturing period was taken as the control (−BMP4 condition, FIG. 5A). In the condition with the addition of a BMP signal transduction pathway activating substance simultaneously with the start of the suspension culturing (Day0+BMP4 condition, FIG. 5B), human recombinant BMP4 (manufactured by R & D Systems, 1.5 nM, start of step 2) was added. Thereafter, in the condition with the addition of a BMP signal transduction pathway activating substance on days 1, 2, 3 from the start of suspension culturing (Day1-3+BMP4 condition, FIGS. 5C-E), a serum-free medium not containing Y27632 and containing IWP-2, SB-431542, BMP4 was added at 100 μl per well. BMP4 was added at 3 nM to the medium such that the final concentration thereof in the well was 1.5 nM. Only in the Day0+BMP4 condition, a serum-free medium not containing Y27632 and containing IWP-2, SB-431542, BMP4 was added at 100 μl per well on day 3 from the start of suspension culturing. In the condition with the addition of a BMP signal transduction pathway activating substance on day 6 from the start of differentiation induction (Day6+BMP4 condition, FIG. 5F), a serum-free medium not containing Y27632 or BMP4 and containing IWP-2 and SB-431542 was added at 100 μl per well on day 3 from the start of differentiation induction, and a half amount of the medium was changed on day 6 with a serum-free medium not containing Y27632 and containing IWP-2, SB-431542, BMP4. Under other conditions, a half amount of the medium was changed with a serum-free medium not containing Y27632 or BMP and containing IWP-2 and SB-431542 on day 6 from the start of suspension culturing. On day 10 from the start of suspension culturing, bright field observation was performed using an inverted microscope (manufactured by KEYENCE CORPORATION, BIOREVO) (FIGS. 5A-B).

[3] = test system: Human ES cells (KhES-1 strain); test: Consideration of concentration of BMP4 in production of cell mass (Example 6)
Description: Human ES cells (KhES-1 strain, obtained from Kyoto University) were cultured under feeder-free conditions according to the method described in Scientific Reports, 4, 3594 (2014). As the feeder-free medium, StemFit medium was used and, as the feeder-free scaffold, Laminin 511-E8 was used. Specific maintenance culturing operation was performed in the same manner as in Comparative Example 1.
The thus-prepared subconfluent human ES cells were washed with PBS, subjected to an enzyme treatment using Accumax, a serum-free medium for differentiation induction was added, and the cells were scraped from the surface of the culture dish by using a cell scraper and dispersed into single cells by pipetting. Thereafter, the aforementioned human ES cells dispersed into single cells were suspended in 100 μl of a serum-free medium at 1×10^4 cells per well of a non-cell-adhesive 96-well culture plate (PrimeSurface 96V-bottom plate, manufactured by SUMITOMO BAKELITE), and cultured in suspension under the conditions of 37° C., 5% CO2. […]

[4] = BMP4 1.5 nM, observation day 10

Molecule | elution amount after incorporation of fluorescein [1] | time of addition from the start of suspension culturing effective for formation of the cell mass ([2]; BMP4 1.5 nM) | formation of cell masses with two-layer structure ([2]; BMP4 1.5 nM added on day 1 and day 2 (Day1, 2+BMP4), observation day 10) | efficiency of formation of nonneural epithelium-like tissue on the outside ([2]; BMP4 1.5 nM added on day 3 and day 6, observation day 10) | formation of embryoid body ([2]; BMP4 1.5 nM added simultaneously with start of differentiation induction (Day0+BMP4), observation day 10) | diameter of embryoid body, BMP4 on day 2 relative to BMP4 on day 1 [2, 4] | volume of embryoid body, BMP4 on day 2 relative to BMP4 on day 1 [2, 4] | BMP4 concentration at which nonneural epithelial tissue can be formed on the surface of cell mass ([3]; BMP4 added on day 2 from the start of suspension culturing) | formation of cell mass having nonneural epithelial tissue on the surface ([3]; BMP4 at any concentration from 0.1 nM to 5 nM added on day 2, IWP-2 2 μM, SB-431542 1 μM, observation day 10)
CC(CN1c2ccccc2Sc2ccccc21)N(C)C (stereo not shown) [promethazine hydrochloride] | significant difference | – | – | – | – | – | – | – | –
O=Cc1ccc(C(=O)O)cc1 [4-formylbenzoic acid] | significant difference | – | – | – | – | – | – | – | –
BMP4: human recombinant BMP4 (manufactured by R & D Systems), BMP signal transduction pathway activating substance (protein, UniProt P12644 293-408, looked up) Bone morphogenetic protein 4: SPKHHSQRARKKNKNCRRHSLYVDFSDVGWNDWIVAPPGYQAFYCHGDCPFPLADHLNSTNHAIVQTLVNSVNSSIPKACCVPTELSAISMLYLDEYDKVVLKNYQEMVVEGCGCR | – | ≤ 72 h | cell masses containing neural tissue and nonneural epithelial tissue and having a two-layer structure in which a center part with a neuroepithelium-like structure is covered with a nonneural epithelium-like layer were formed | lower than that of the condition with the addition of BMP4 on day 2 | markedly inhibited | about 1.3 times | about 2.2 times | not less than 0.1 nM | a cell mass having nonneural epithelial tissue on the surface was formed
